Experiments:
Type in all cases: cell-based
HEK293T cells [1] = test: cAMP production by Olfr15-derived receptors expressed in HEK293T cells, cyclohexanone as agonist (Experiment 3)
Method: (§1) Subsequently, the HEK293T cells were transfected with the above-mentioned three plasmids by a lipofection method. The HEK293T cells were incubated for 48 hours, and the β1AR consisting of the protein represented by SEQ ID NO: 03 was expressed on the cell membrane of the HEK293T cell.
(§2) The abbreviation “IBMX” means 3-isobutyl-1-methylxanthine. The IBMX is one of the phosphodiesterase inhibitors. The IBMX stabilizes cAMP, which is unstable.
The expression was conducted similarly to that of the step 2 of the reference example 1 except that the plasmid (Rho-myc-Olfr15) was used instead of the plasmid (β1AR). In this way, the Rho-myc-Olfr15 (SEQ ID NO: 58) was expressed on a cell membrane.
Instead of the eugenol aqueous solutions, the concentrations of the cAMP were measured similarly to the step 3 of the comparative example 1-1 except that cyclohexanone aqueous solutions having concentrations of 30 μM, 100 μM, 300 μM, 1000 μM, and 3000 μM were used as agonists.
The expression was conducted similarly to that of the step 2 of the reference example 1 except that the plasmid (chimeraOlfr15) was used instead of the plasmid (β1AR). In this way, the chimeraOlfr15 (SEQ ID NO: 60) was expressed on a cell membrane.
The concentrations of the cAMP were measured similarly to the step 3 of the comparative example 3-1.

HEK293T cells [2] = test: cAMP production by Olfr168-derived receptors expressed in HEK293T cells, 2-pentanone as agonist (Experiment 2)
Method: as §1, §2
The expression was conducted similarly to that of the step 2 of the reference example 1 except that the plasmid (Rho-myc-Olfr168) was used instead of the plasmid (β1AR). In this way, the Rho-myc-Olfr168 (SEQ ID NO: 49) was expressed on a cell membrane.
The concentrations of the cAMP were measured similarly to the step 3 of the comparative example 1-1 except that 2-pentanone aqueous solutions having concentrations of 30 μM, 100 μM, 300 μM, 1000 μM, and 3000 μM were used as agonists instead of the eugenol aqueous solutions.
The expression was conducted similarly to that of the step 2 of the reference example 1 except that the plasmid (chimeraOlfr168) was used instead of the plasmid (β1AR). In this way, the chimeraOlfr168 (SEQ ID NO: 51) was expressed on a cell membrane.
The concentrations of the cAMP were measured similarly to the step 3 of the comparative example 2-1.

HEK293T cells [3] = test: cAMP production by Olfr609-derived receptors expressed in HEK293T cells, vanillic acid as agonist (Experiment 4)
Method: as §1, §2
The expression was conducted similarly to that of the step 2 of the reference example 1 except that the plasmid (Rho-myc-Olfr609) was used instead of the plasmid (β1AR). In this way, the Rho-myc-Olfr609 (SEQ ID NO: 64) was expressed on a cell membrane.
Instead of the eugenol aqueous solutions, the concentrations of the cAMP were measured similarly to the step 3 of the comparative example 1-1 except that vanillic acid aqueous solutions having concentrations of 0.30 μM, 1 μM, 3 μM, 10 μM, and 30 μM were used as agonists.
The expression was conducted similarly to that of the step 2 of the reference example 1 except that the plasmid (chimeraOlfr609) was used instead of the plasmid (β1AR). In this way, the chimeraOlfr609 (SEQ ID NO: 69) was expressed on a cell membrane.
The concentrations of the cAMP were measured similarly to the step 3 of the comparative example 4-1.

Molecule | concentration of the cAMP (HEK293T cells [1]; cyclohexanone 0 μM) | concentration of the cAMP (HEK293T cells [1]; cyclohexanone 30 μM) | concentration of the cAMP (HEK293T cells [1]; cyclohexanone 100 μM) | concentration of the cAMP (HEK293T cells [1]; cyclohexanone 1000 μM) | concentration of the cAMP (HEK293T cells [1]; cyclohexanone 3000 μM) | concentration of the cAMP (HEK293T cells [2]; 2-pentanone 0 μM) | concentration of the cAMP (HEK293T cells [2]; 2-pentanone 30 μM) | concentration of the cAMP (HEK293T cells [2]; 2-pentanone 100 μM) | concentration of the cAMP (HEK293T cells [2]; 2-pentanone 300 μM) | concentration of the cAMP (HEK293T cells [2]; 2-pentanone 1000 μM) | concentration of the cAMP (HEK293T cells [2]; 2-pentanone 3000 μM) | concentration of the cAMP (HEK293T cells [3]; vanillic acid 0 μM) | concentration of the cAMP (HEK293T cells [3]; vanillic acid 0.3 μM) | concentration of the cAMP (HEK293T cells [3]; vanillic acid 1 μM) | concentration of the cAMP (HEK293T cells [3]; vanillic acid 3 μM) | concentration of the cAMP (HEK293T cells [3]; vanillic acid 10 μM) | concentration of the cAMP (HEK293T cells [3]; vanillic acid 30 μM) | other results
Rho-myc-Olfr15: Rho-tag, myc epitope tag and EC1-IC4 domains of the Olfr15, mouse olfactory receptor for cyclohexanone (protein, Rho-myc-Olfr15) MNGTEGPNFYVPFSNKTGVVEQKLISEEDLEFMEVDSNSSSGSFILMGVSDHPHLEIIFFAVILASYLLTLVGNLTIILLSRLDARLHTPMYFFLSNLSSLDLAFTTSSVPQMLKNLWGPDKTISYGGCVTQLYVFLWLGATECILLVVMAFDRYVAVCRPLHYMTVMNPRLCWGLAAISWLGGLGNSVIQSTFTLQLPFCGHRKVDNFLCEVPAMIKLACGDTSLNEAVLNGVCTFFTVVPVSVILVSYCFIAQAVMKIRSVEGRRKAFNTCVSHLVVVFLFYGSAIYGYLLPAKSSNQSQGKFISLFYSVVTPMVNPLIYTLRNKEVKGALGRLLGKGRGAS | 0.0173 | 0.0180 | 0.0210 | 0.0280 | 0.0444 |  |  |  |  |  |  |  |  |  |  |  |  | 
chimeraOlfr15: IC4 domain of the Rho-myc-Olfr15 substituted with that of the beta-1 adrenergic receptor (protein, ChimeraOlfr15, IC4 domain of the Rho-myc-Olfr15 substituted with that of the beta-1 adrenergic receptor) MNGTEGPNFYVPFSNKTGVVEQKLISEEDLEFMEVDSNSSSGSFILMGVSDHPHLEIIFFAVILASYLLTLVGNLTIILLSRLDARLHTPMYFFLSNLSSLDLAFTTSSVPQMLKNLWGPDKTISYGGCVTQLYVFLWLGATECILLVVMAFDRYVAVCRPLHYMTVMNPRLCWGLAAISWLGGLGNSVIQSTFTLQLPFCGHRKVDNFLCEVPAMIKLACGDTSLNEAVLNGVCTFFTVVPVSVILVSYCFIAQAVMKIRSVEGRRKAFNTCVSHLVVVFLFYGSAIYGYLLPAKSSNQSQGKFISLFYSVVTPMVNPLIYTLRNKDFRKAFQRLLCCARRAACRRRAAHGDRPRASGCLARAGPPPSPGAPSDDDDDDAGATPPARLLEPWAGCNGGTTTVDSDSSLDEPGRQGFSSESKV | 0.0282 | 0.0280 | 0.0250 | 0.0290 | 0.0916 |  |  |  |  |  |  |  |  |  |  |  |  | concentration of the cAMP compared with Rho-myc-olfr15 (in words) (HEK293T cells [1]; cyclohexanone, Table 7): much greater
Rho-myc-Olfr168: Rho-tag, myc epitope tag and EC1-IC4 domains of the Olfr168, mouse olfactory receptor for 2-pentanone (protein, Rho-myc-olfr168) MNGTEGPNFYVPFSNKTGVVEQKLISEEDLEFMEKWNQSSSDFILLGLLPQNQTGLLLMMLIILVFFLALFGNSAMIHLIRVDPRLHTPMYFLLSQLSLMDLMYISTTVPKMAFNFLSGQKNISFLGCGVQSFFFLTMAGSEGLLLASMAYDRFVAICHPLHYPIRMSKIMCLKMIIGSWILGSINSLAHSIYALHIPYCHSRSINHFFCDVPAMLPLACMDTWVYEYMVFVSTSLFLLLPFLGITASYGRVLFAVFHMRSKEGKKKAFTTCSTHLTVVTFYYAPFVYTYLRPRSLRSPTEDKILTVFYTILTPMLNPIIYSLRNKEVLGAMTRVLGTFSSMKP |  |  |  |  |  | 0.0215 | 0.0170 | 0.0170 | 0.0280 | 0.0400 | 0.0444 |  |  |  |  |  |  | 
chimeraOlfr168: Rho-myc-Olfr168 where the IC4 domain was substituted with that of the beta-1 adrenergic receptor (protein, ChimeraOlfr168, Rho-myc-Olfr168 where the IC4 domain was substituted with that of the beta-1 adrenergic receptor) MNGTEGPNFYVPFSNKTGVVEQKLISEEDLEFMEKWNQSSSDFILLGLLPQNQTGLLLMMLIILVFFLALFGNSAMIHLIRVDPRLHTPMYFLLSQLSLMDLMYISTTVPKMAFNFLSGQKNISFLGCGVQSFFFLTMAGSEGLLLASMAYDRFVAICHPLHYPIRMSKIMCLKMIIGSWILGSINSLAHSIYALHIPYCHSRSINHFFCDVPAMLPLACMDTWVYEYMVFVSTSLFLLLPFLGITASYGRVLFAVFHMRSKEGKKKAFTTCSTHLTVVTFYYAPFVYTYLRPRSLRSPTEDKILTVFYTILTPMLNPIIYSLRNKDFRKAFQRLLCCARRAACRRRAAHGDRPRASGCLARAGPPPSPGAPSDDDDDDAGATPPARLLEPWAGCNGGTTTVDSDSSLDEPGRQGFSSESKV |  |  |  |  |  | 0.0187 | 0.0220 | 0.0270 | 0.0520 | 0.0775 | 0.0916 |  |  |  |  |  |  | concentration of the cAMP compared with Rho-myc-Olfr168 (in words) (HEK293T cells [2]; 2-pentanone, Table 6): much greater
chimeraOlfr609: IC4 domain of the Rho-myc-Olfr609 substituted with that of the beta-1 adrenergic receptor (protein, ChimeraOlfr 609, IC4 domain of the Rho-myc-Olfr609 substituted with that of the beta-1 adrenergic receptor) MNGTEGPNFYVPFSNKTGVVEQKLISEEDLEFMSYSNHSSTSFFLTGLPGLETVYLWLSIPLCTMYIASLAGNGLILWVVKSEPSLHQPMYYFLSMLAVTDLGLSVSTLPTMLTIYMMGVSEVALDMCLAQLFFIHTFSIMESSVLLTMAFDRVVAISSPLHYATILTNPRVASLGMVILVRSIGLHIPAPIMLKKLPYCQKRHLSHSYCLHPDVMKLACTDTRINSAYGLFVVLSTLGVDSVLIVLSYGLILYTVLSIASKTERLKALNTCVSHICSVLLFYTPMIGLSMIHRFGKWASPCSRVLLSYLHFLTPPVLNPVVYTIKTKDFRKAFQRLLCCARRAACRRRAAHGDRPRASGCLARAGPPPSPGAPSDDDDDDAGATPPARLLEPWAGCNGGTTTVDSDSSLDEPGRQGFSSESKV |  |  |  |  |  |  |  |  |  |  |  | 0.075 | 0.166 | 0.160 | 0.192 | 0.162 | 0.187 | concentration of the cAMP compared with Rho-myc-Olfr609 (in words) (HEK293T cells [3]; vanillic acid, Table 8): much greater
Rho-myc-Olfr609: Rho-tag, myc epitope tag and EC1-IC4 domains of the Olfr609, mouse olfactory receptor for vanillic acid (protein, Rho-myc-olfr609) MNGTEGPNFYVPFSNKTGVVEQKLISEEDLEFMSYSNHSSTSFFLTGLPGLETVYLWLSIPLCTMYIASLAGNGLILWVVKSEPSLHQPMYYFLSMLAVTDLGLSVSTLPTMLTIYMMGVSEVALDMCLAQLFFIHTFSIMESSVLLTMAFDRVVAISSPLHYATILTNPRVASLGMVILVRSIGLHIPAPIMLKKLPYCQKRHLSHSYCLHPDVMKLACTDTRINSAYGLFVVLSTLGVDSVLIVLSYGLILYTVLSIASKTERLKALNTCVSHICSVLLFYTPMIGLSMIHRFGKWASPCSRVLLSYLHFLTPPVLNPVVYTIKTKQIRQRIWRIFRCGGRSIGHIQGH |  |  |  |  |  |  |  |  |  |  |  | 0.014 | 0.070 | 0.076 | 0.127 | 0.067 | 0.071 | 
